{"source": "patent US20210155955A1", "about": "“THERAPEUTIC CONSTRUCTS FOR TREATING CANCER” (CANCER TARGETING SYSTEMS, INC., priority 2018, published 2021)", "molecules": {"B1": {"name": "recombinant mIL-12: recombinant mIL-12 protein (PeproTech) administered subcutaneously (protein, UniProt P43431 23-215; P43432 23-335, looked up)", "Interleukin-12 subunit alpha": "RVIPVSGPARCLSQSRNLLKTTDDMVKTAREKLKHYSCTAEDIDHEDITRDQTSTLKTCLPLELHKNESCLATRETSSTTRGSCLPPQKTSLMMTLCLGSIYEDLKMYQTEFQAINAALQNHNHQQIILDKGMLVAIDELMQSLNHNGETLRQKPPVGEADPYRVKMKLCILLHAFSTRVVTINRVMGYLSSA", "Interleukin-12 subunit beta": "MWELEKDVYVVEVDWTPDAPGETVNLTCDTPEEDDITWTSDQRHGVIGSGKTLTITVKEFLDAGQYTCHKGGETLSHSHLLLHKKENGIWSTEILKNFKNKTFLKCEAPNYSGRFTCSWLVQRNMDLKFNIKSSSSSPDSRAVTCGMASLSAEKVTLDQRDYEKYSVSCQEDVTCPTAEETLPIELALEARQQNKYENYSTSFFIRDIIKPDPPKNLQMKPLKNSQVEVSWEYPDSWSTPHSYFSLKFFVRIQRKKEKMKETEEGCNQKGAFLVEKTSTEVQCKGGNVCVQAQDRYYNSSCSKWACVPCRVRS"}}, "tested_on": "B16F10-Red-FLuc mouse melanoma cells", "assay": "B16F10-Red-FLuc experimental metastasis to the lung, N/P=4 and N/P=6 versus recombinant mIL-12 (Example 9)", "assay_type": "in vivo, C57BL/6 mice", "protocol": "The anti-tumor effect of nanoparticles containing PEG-mIL12 and expressing mIL-12 was compared to recombinant mIL-12 protein administered subcutaneously. The experimental design was as Example 8 but nanoparticles were prepared at N/P=4 and N/P=6 ratios. Nanoparticles were dosed as before for N/P=6, however, for the N/P=4 formulation the dose was maintained at 2 mg/kg in 10 mL/kg at day 8. For dosing of the recombinant protein, 10 μg of recombinant mIL-12 (PeproTech, Rocky Hill, N.J., USA) were reconstituted in PBS to make a 100 μg/mL stock solution. Dosing of the animals was at 4 μg/kg for the initial dose (Day 5) followed by four subsequent doses 12 μg/kg at the same intervals as the nanoparticles (Day 8, 11, 14 and 17).", "data": [{"molecule": "B1", "values": [{"measurement": "Median survival time compared with Trehalose control", "setting": "Log-rank test: p≤0.01 for formulations of PEG-mIL12, p≤0.05 for recombinant mIL-12, Trehalose 22.0 days", "result": "significantly longer"}, {"measurement": "tumor growth by luminescence readings compared with 9.5% Trehalose control", "setting": "Study Day 19", "result": "significant (p≤0.05) inhibition of tumor growth"}, {"measurement": "Median survival time", "setting": "nanoparticles i.v. 2 mg/kg Days 5, 8, 11, 14, 17 (N/P=6: 1 mg/kg Day 8), recombinant mIL-12 subcutaneously 4 μg/kg Day 5 then 12 μg/kg", "result": 25.0, "unit": "days"}]}]}
